Assay results from US20040121411.

Columns and labels:
[1] = test system: radiolabeled βAPP-C100 polypeptide mimic
[2] = test system: radiolabeled βAPP-C83 polypeptide mimic

Substance: solubilized gamma-secretase complex (gamma-secretase associated with PS1) from HeLa cell membranes
- cleavage of 35S-labeled substrate, SDS-PAGE and phosphorimager [1]: The radiolabeled βAPP-C100 substrate was cleaved by the gamma-secretase complexes present in the solubilized protein and protein complex preparation (FIGS. 6 and 7) and the affinity enriched protein preparation (FIG. 8), to yield a 6 kDa cleavage product
- cleavage of 35S-labeled substrate, SDS-PAGE and phosphorimager [2]: The radiolabeled βAPP-C83 substrate was also cleaved by the gamma-secretase complexes present in the solubilized protein and protein complex preparation (FIG. 7) and the affinity enriched protein preparation, to yield a 6 kDa cleavage product
